pKd: −log10 of the molar value.
Experiments:
[1] = target: β-lactamase-SBP fusion; experiment: SPR; BIAcoreX; purified β-lactamase-SBP amine-coupled to a CM5 chip, streptavidin variant as analyte; blank flow cell as reference
[2] = target: SAVSBPM18 engineered streptavidin (S27A, G48T) (UniProt P22629); experiment: affinity column chromatography; streptavidin variant coupled to Affi-gel 15; culture supernatant with β-lactamase-SBP loaded at 142-150% of the theoretical column binding capacity (overloaded); leakage during washing; pure wash fractions pooled with the elution fractions
[3] = target: wild-type streptavidin (UniProt P22629); experiment: affinity column chromatography; streptavidin variant coupled to Affi-gel 15; culture supernatant with β-lactamase-SBP loaded at 20% of the theoretical column binding capacity (non-overloaded); PBS wash, elution with 5 mM d-biotin
[4] = target: SAVSBPM18 engineered streptavidin (S27A, G48T) (UniProt P22629); experiment: as above
[5] = target: wild-type streptavidin (UniProt P22629); experiment: affinity column chromatography; streptavidin variant coupled to Affi-gel 15; culture supernatant with β-lactamase-SBP loaded at 142-150% of the theoretical column binding capacity (overloaded); leakage during washing; pure wash fractions pooled with the elution fractions
[6] = target: SAVSBPM18 engineered streptavidin (S27A, G48T) (UniProt P22629); experiment: as above; remark: listed apart in the source

Chain of SAVSBPM18 engineered streptavidin (S27A, G48T) (P22629 25-183 S51A/G72T): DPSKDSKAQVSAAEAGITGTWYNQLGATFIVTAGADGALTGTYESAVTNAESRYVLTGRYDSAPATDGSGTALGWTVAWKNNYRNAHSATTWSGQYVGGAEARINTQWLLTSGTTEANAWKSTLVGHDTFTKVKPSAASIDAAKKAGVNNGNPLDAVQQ
Chain of wild-type streptavidin (from UniProt P22629 25-183) (natural protein) (P22629 25-183): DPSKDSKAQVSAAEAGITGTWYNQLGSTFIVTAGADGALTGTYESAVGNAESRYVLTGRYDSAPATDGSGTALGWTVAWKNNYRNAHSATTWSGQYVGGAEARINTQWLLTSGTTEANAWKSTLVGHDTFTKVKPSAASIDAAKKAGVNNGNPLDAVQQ
Chain of wild-type streptavidin (UniProt P22629) (P22629 25-183): as above

Substance | pKd [1] | koff [1] [s⁻¹] | kon [1] [M⁻¹ s⁻¹] | percent recovery [2] [%] | percent recovery [3] [%] | percent recovery [4] [%] | percent recovery [5] [%] | percent recovery [6] [%]
wild-type streptavidin (from UniProt P22629 25-183) (natural protein) | 8.07 | 0.000816 | 95000 | – | – | – | – | –
β-lactamase-SBP fusion | – | – | – | 51 | 90 | 91 | 51 | 58
SAVSBPM18 engineered streptavidin (S27A, G48T) (from UniProt P22629 25-183) (designed binder) | 7.80 | 0.000711 | 45300 | – | – | – | – | –
